Consider three molecules from US20140370022A1 (SAMSUNG LIFE PUBLIC WELFARE FOUNDATION, published 2014).

In test [1] the target is T1, mouse c-Met-Fc protein (mouse c-Met extracellular domain + Fc) (mouse, UniProt P16056 25-931).
T1 construct: extracellular domain; not shown: Fc region of IgG
Nature of the test: ELISA, periplasmic scFv-pIII extract on coated mouse c-Met-Fc, anti-HA-HRP, OD450 as ratio to control coat (BSA, IgG). The protocol:
After a total of six rounds of panning with mouse/human c-Met were finished, the phage particles collected from the final round of panning were confirmed as colonies in the medium through infection of host cells. These colonies were taken and inoculated in a 96 well plate containing 200 μl of SB/ampicillin media and then cultured (37° C., within 3 hours). After that, for the induction of scFv-pIII protein expression, 1 mM final concentration IPTG was added to each well, followed by culturing overnight at 30° C. After that, the cultured plate was centrifuged to discard the supernatant. Then, for the collection of periplasmic fractions from the cultured cells in each well, the culture plate was treated with 40 μl of TES solution (20% w/v sucrose, 50 mM Tris, 1 mM EDTA, pH 8.0) maintained at 4° C., and then kept to stand at 4° C. for 30 minutes, so that the cells were lysed. After that, the cells were treated with 60 μl of 0.2×TES solution, and then kept to stand for 30 minutes. Finally, the plate was centrifuged and the supernatant was collected, thereby producing scFv-pIII protein on a small scale.
At the same time, a 96 well plate coated with human or mouse c-Met-Fc protein was prepared, and then 25 μl of aliquot was taken from the collected periplasmic fractions and added to each well, followed by binding for 1 hour. Then, after three or four times of washing procedures were performed using TBST, anti-HA-HRP antibody was added, followed by binding for 1 hour. The plate was again washed, followed by induction of a color development reaction (TMB substrate), and then the values of color development were measured at O.D. 450 nm. […] Since antibody in which c-Met extracellular domain binds to Fc region of IgG was used at the time of the panning, commercialized antibody (Erbitux) or BSA protein was used as a control group in order to exclude the phage particles that bind to Fc region.

The target in test [2] is c-Met protein (species and construct not stated). As to the kind of experiment: SPR, Biacore T100, c-Met amine-coupled on CM5 chip, scFv as analyte. The text has this:
For the confirmation of more accurate binding affinity (coupling constant), the binding affinity of respective clones to c-Met was verified through surface plasmon resonance analysis. Respective antibody fragments were expressed in the host E. coli, followed by purification, and then dialyzed with PBS solution. Biacore T100 (GE healthcare) was used for the analysis. The c-Met protein was fixed to a dextran medium through an amine coupling reaction in the CM5 sensor chip. […] Based on these values, kinetic analysis was conducted through the BIA-evaluation program. As a result, the KD values of the 1F12 and 2A01 clones were measured to be 6⁻⁹×10⁻⁸ M and the Kd value of 2C03 was verified to be 10⁻⁷ M (Table 4).

The target in another test is T2, Control (BSA) (Bos taurus, UniProt P02769).
T2 construct: coated as control protein; also called BSA protein
Nature of the test: ELISA, 5 ug/ml scFv on coated Control (BSA), anti-HA-HRP. How it is done:
(§1) By using the produced scFv protein, the binding affinity to human/mouse c-Met extracellular domain+Fc protein was confirmed through ELISA. Human/mouse c-Met coated on a 96-well plate were treated with 5 μg/ml of scFv proteins (1F12, 2A01, 2C03, and 2D05), followed by binding at room temperature for 1 hour. After that, the plate was washed three times with 0.1% TBST solution, and then treated with anti-HA-HRP antibody for 1 hour, to detect the scFv proteins that bind to c-Met. After that, the plate was washed three times, and then treated with 10 μl of TMB substrate, followed by standing for 5 minutes. The reaction was stopped by using sulfuric acid solution, and then the absorbance was determined by ELISA reader. As a result, it was verified that each scFv protein had significant binding affinity to human and mouse c-Met proteins as compared with the control group (IgG, BSA) (FIG. 5A). In addition, after the cells were treated with 500 ng/ml of each scFv protein using human c-Met protein to which Fc region was not bound, the same ELISA assay was conducted.

For test [3], the target named is T3, human c-Met-Fc protein (human c-Met extracellular domain + Fc) (human, UniProt P08581 25-932).
T3 construct: extracellular domain; also called c-Met extracellular domain+Fc protein; not shown: Fc region of IgG
Nature of the test: ELISA, scFv titrated 2-fold from 500 ng/ml on coated human c-Met, anti-HA-HRP, no HGF. The protocol:
as §1, with “Human/mouse c-Met coated on a 96-well plate were treated with 5 μg/ml of scFv proteins (1F12, 2A01, 2C03, and 2D05), followed by binding at room temperature for 1 hour.” left out
For the verification of whether the selected scFv proteins have competitive binding affinity with the hepatocyte growth factor, which is the ligand of c-Met, the ligand competitive ELISA experiment was conducted. As in examples 2 and 4, the coated human c-Met was prepared, and respective wells were treated with samples in which each scFv protein was diluted at a 2-fold dilution from 500 ng/ml to about 1 ng/ml. After the treatment, the experiment procedure was conducted as in Example 4.

T2 sequence (P02769 25-607 limits assumed): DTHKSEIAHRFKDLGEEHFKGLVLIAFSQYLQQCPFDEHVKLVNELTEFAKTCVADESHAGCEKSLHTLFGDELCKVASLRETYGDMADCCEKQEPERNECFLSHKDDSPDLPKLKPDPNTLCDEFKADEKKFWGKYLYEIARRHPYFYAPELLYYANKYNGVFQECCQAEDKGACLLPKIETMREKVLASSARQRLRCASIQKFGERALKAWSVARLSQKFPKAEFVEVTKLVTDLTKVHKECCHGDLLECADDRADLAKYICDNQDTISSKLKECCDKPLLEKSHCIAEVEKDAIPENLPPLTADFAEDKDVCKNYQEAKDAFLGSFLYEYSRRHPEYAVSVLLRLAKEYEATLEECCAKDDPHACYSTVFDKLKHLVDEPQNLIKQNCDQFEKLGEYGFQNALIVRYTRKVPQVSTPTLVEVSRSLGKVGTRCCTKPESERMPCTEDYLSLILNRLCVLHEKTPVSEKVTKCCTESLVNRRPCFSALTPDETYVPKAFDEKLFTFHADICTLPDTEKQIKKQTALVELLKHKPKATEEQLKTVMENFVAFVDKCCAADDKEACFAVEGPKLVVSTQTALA
c-Met protein (species and construct not stated), sequence (P08581 whole entry, the tested form may be a part): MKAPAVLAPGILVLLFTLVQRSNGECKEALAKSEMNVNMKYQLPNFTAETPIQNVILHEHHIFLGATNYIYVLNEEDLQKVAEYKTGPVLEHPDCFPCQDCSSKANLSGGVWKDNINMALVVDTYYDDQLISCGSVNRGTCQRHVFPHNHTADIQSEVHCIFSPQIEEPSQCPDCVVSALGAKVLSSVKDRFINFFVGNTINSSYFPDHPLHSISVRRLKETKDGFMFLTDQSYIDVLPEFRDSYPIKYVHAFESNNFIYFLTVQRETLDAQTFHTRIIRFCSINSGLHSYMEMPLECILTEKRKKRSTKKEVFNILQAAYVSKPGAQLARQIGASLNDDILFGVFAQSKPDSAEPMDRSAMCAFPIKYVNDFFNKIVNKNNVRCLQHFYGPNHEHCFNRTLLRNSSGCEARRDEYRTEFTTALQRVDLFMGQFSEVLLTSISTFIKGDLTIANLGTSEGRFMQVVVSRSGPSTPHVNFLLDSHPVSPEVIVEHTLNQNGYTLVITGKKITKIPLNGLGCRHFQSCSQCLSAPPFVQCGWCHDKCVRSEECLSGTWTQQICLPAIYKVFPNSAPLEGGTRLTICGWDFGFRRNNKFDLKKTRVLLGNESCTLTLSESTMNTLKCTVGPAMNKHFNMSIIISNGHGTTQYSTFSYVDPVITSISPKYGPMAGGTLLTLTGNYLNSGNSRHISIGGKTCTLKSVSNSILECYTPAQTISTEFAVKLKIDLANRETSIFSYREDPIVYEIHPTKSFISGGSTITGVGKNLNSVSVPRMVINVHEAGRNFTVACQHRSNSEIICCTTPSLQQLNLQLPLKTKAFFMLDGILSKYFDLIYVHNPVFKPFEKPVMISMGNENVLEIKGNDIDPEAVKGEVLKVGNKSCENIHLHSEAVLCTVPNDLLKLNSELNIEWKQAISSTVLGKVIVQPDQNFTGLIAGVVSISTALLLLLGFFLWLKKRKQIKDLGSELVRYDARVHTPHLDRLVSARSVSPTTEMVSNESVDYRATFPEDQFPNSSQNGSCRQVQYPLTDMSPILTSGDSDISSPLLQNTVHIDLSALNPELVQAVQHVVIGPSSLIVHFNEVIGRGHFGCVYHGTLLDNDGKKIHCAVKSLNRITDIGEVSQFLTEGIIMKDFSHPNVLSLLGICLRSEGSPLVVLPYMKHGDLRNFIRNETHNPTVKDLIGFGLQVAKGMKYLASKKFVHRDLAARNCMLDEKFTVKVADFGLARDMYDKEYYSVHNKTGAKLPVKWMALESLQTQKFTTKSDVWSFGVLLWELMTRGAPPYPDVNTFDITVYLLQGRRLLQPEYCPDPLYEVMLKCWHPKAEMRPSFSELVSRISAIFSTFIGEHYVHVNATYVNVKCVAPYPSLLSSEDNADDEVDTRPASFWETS
T1 sequence (P16056 25-931): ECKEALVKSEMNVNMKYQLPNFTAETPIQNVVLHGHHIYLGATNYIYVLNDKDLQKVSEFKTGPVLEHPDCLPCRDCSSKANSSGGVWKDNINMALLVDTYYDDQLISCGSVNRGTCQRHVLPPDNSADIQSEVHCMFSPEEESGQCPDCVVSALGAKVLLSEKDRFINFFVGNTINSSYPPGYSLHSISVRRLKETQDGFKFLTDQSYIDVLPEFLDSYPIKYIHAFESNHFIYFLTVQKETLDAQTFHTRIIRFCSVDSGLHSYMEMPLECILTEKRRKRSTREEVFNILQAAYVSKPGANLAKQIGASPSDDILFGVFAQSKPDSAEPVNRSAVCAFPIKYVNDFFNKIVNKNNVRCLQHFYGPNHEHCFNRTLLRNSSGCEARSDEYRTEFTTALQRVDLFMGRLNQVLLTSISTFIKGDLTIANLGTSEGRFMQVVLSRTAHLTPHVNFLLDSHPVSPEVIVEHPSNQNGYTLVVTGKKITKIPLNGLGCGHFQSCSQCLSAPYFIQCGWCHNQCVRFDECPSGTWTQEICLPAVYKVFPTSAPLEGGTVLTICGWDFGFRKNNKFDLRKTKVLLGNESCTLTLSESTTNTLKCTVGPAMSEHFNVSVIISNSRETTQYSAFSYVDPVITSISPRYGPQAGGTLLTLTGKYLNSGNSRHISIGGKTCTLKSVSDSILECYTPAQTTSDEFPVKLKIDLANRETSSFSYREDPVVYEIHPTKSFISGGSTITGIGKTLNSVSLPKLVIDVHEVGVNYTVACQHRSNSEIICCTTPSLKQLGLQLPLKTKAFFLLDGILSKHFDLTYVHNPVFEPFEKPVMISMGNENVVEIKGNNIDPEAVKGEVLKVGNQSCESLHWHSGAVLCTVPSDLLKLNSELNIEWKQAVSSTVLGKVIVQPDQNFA
T3 sequence (P08581 25-932): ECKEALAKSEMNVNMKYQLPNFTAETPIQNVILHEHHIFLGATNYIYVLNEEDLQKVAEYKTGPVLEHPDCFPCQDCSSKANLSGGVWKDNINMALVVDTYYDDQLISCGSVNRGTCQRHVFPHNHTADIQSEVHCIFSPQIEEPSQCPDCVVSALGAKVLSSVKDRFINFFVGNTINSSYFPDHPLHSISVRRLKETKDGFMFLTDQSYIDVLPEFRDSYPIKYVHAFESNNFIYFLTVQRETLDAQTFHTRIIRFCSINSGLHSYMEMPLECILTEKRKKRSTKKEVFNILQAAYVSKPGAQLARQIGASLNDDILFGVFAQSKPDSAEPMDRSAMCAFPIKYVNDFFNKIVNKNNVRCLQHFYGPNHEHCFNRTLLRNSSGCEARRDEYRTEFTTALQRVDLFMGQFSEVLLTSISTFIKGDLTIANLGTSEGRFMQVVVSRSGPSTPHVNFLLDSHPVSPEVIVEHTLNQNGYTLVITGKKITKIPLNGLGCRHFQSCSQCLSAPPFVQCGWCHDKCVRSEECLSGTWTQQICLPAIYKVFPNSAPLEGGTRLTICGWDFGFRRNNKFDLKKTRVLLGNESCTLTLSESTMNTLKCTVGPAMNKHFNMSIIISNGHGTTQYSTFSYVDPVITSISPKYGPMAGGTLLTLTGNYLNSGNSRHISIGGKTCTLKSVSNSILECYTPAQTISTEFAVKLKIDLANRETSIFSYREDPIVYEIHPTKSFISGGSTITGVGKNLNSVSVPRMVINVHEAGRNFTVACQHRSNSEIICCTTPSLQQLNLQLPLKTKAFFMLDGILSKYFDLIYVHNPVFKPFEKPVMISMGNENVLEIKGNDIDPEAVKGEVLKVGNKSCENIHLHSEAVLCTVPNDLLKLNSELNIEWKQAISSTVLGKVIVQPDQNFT

B1: 2C03 scFv antibody fragment (scFv)
scFv: EVQLLESGGGLVQPGGSLRLSCAASGFTFSNYAMSWVRQAPGKGLEWVSAISYDSGSIYYADSVKGRFTISRDNSKNTLYLQMNSLRAEDTAVYYCAKAARSCRNWSCSYANGMDVWGQGTLVTVSSGGGGSGGGGSGGGGSQSVLTQPPSASGTPGQRVTISCTGSSSNIGSNYVSWYRQLPGTAPKLLIYSDSNRPSGVPDRFSGSKSGTSASLAISGLRSEDEADYYCGSWDDSLSGYVFGGGTKLTVL
notes: Soluble scFv of about 28 kDa expressed in E. coli TOP10F' and purified over Ni-NTA; also called 2C03 clone; 2CO3
With B1, in test [1], the binding result is given as “binds”. Moreover, in test [2], binding was put at a Kd of 239 nM, the koff worked out at 0.186 s⁻¹ and the kon is 776000 M⁻¹ s⁻¹. Also, the binding result with Control (BSA) is on record as “no binding (tested: 5 ug/ml)”.

B2: 2A01 scFv antibody fragment (scFv)
scFv: EVQLLESGGGLVQTGGSLRLSCAASGFTFSSYDMSWVRRAPGKGLEWVSWISHGGSSISYADSVKGRFTISRDNSKNTLYLQMNSLRAEDTAVYYCAKDAYPIRQETFDYWGQGTLVTVSSGGGGSGGGGSGGGGSQSVLTQPPSASGTPGQRVTISCSGSSSNIGNNDVSWYQQLPGTAPKLLIYPDSQRPSGVPDRFSGSKSGTSASLAISGLRSEDEADYYCASWDSSLSGYVFGGGTKLTVL
notes: Soluble scFv of about 28 kDa expressed in E. coli TOP10F' and purified over Ni-NTA; also called 2A01 clone; 2A1
For B2, in test [1], the binding result was “binds”. In test [2], this molecule returned a Kd of 66 nM, a koff of 0.153 s⁻¹ and a kon of 2.32e+06 M⁻¹ s⁻¹. Besides, the binding result in the test with Control (BSA) is reported as “no binding (tested: 5 ug/ml)”.

B3: 1F12 scFv antibody fragment (scFv)
scFv: EVQLLESGGGLVQPGGSLRLSCAASGFTFSNYAMSWVRQAPGKGLEWVSGISYSGGSTYYADSVKGRFTISRDNSKNTLYLQMNSLRAEDTAVYYCAKASRSCQRPACSYANGMDVWGQGTLVTVSSGGGGSGGGGSGGGGSQSVLTQPPSASGTPGQRVTISCTGSSSNIGNNYVTWYQQLPGTAPKLLIYYNNHRPSGVPDRFSGSKSGTSASLAISGLQSEDEADYYCGSWDYSLSAYVFGGGTKLTVL
notes: Soluble scFv of about 28 kDa expressed in E. coli TOP10F' and purified over Ni-NTA; also called 1F12 clone
For B3, the figures for the binding result (in test [1]; in the test with Control (BSA)) were “binds” and “no binding (tested: 5 ug/ml)”, respectively. Moreover, the affinity in test [2], expressed as Kd, was 93.3 nM. Moreover, the “EC50 (read off the curve)” value in test [3] was ~0.04 µg/mL.
